Laboratory results reported in patent US20240182536A1 (MURAL ONCOLOGY, published 2024).

T1: IL-18 receptor (IL-18Rα and IL-18Rβ) (UniProt Q13478 19-541; O95256 20-599, limits assumed)
T1 sequence (looked up) 1: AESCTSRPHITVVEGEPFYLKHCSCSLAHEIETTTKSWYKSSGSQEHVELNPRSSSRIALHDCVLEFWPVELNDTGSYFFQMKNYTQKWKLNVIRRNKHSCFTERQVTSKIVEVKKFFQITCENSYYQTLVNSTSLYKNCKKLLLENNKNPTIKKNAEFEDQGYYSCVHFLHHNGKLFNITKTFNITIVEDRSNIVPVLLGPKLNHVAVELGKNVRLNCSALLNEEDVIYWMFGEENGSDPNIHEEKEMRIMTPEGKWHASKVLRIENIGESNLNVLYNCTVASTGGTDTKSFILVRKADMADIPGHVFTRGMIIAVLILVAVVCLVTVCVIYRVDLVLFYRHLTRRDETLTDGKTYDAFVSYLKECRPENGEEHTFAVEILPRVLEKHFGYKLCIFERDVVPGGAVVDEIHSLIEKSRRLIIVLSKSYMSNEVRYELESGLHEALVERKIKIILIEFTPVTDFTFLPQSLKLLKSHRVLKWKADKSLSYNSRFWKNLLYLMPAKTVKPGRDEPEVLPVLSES
T1 sequence (looked up) 2: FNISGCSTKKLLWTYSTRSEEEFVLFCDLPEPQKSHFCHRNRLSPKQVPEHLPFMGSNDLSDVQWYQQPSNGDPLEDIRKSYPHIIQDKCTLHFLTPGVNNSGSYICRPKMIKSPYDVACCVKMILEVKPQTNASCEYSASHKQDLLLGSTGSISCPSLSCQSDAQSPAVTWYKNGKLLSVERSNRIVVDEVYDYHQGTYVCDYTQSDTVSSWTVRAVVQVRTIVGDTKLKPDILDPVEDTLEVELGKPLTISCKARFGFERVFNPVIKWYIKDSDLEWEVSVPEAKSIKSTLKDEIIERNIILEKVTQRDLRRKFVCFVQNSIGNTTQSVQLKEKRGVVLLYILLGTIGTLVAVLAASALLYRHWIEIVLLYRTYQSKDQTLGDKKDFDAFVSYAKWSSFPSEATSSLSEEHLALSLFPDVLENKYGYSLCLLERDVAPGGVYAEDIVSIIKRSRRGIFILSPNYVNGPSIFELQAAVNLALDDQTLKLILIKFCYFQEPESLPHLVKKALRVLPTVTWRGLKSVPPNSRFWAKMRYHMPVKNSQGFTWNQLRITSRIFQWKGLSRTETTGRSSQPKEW

T2: IL-18 receptors on HEK-Blue IL-18 reporter cells (UniProt Q13478 19-541; O95256 20-599, limits assumed)
T2 sequence (looked up) 1: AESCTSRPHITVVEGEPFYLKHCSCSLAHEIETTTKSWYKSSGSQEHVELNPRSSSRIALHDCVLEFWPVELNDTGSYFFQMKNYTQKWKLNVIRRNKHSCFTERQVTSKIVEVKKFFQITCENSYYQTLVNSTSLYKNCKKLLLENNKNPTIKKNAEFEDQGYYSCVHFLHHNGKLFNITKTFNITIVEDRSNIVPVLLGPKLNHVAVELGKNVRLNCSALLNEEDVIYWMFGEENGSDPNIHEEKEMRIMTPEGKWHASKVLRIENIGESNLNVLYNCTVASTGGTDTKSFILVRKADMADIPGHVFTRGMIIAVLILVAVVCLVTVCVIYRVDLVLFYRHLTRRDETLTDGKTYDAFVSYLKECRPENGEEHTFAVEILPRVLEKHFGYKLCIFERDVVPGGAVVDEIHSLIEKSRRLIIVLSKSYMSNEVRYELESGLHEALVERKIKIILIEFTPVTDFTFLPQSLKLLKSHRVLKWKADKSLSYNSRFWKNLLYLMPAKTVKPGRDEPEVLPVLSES
T2 sequence (looked up) 2: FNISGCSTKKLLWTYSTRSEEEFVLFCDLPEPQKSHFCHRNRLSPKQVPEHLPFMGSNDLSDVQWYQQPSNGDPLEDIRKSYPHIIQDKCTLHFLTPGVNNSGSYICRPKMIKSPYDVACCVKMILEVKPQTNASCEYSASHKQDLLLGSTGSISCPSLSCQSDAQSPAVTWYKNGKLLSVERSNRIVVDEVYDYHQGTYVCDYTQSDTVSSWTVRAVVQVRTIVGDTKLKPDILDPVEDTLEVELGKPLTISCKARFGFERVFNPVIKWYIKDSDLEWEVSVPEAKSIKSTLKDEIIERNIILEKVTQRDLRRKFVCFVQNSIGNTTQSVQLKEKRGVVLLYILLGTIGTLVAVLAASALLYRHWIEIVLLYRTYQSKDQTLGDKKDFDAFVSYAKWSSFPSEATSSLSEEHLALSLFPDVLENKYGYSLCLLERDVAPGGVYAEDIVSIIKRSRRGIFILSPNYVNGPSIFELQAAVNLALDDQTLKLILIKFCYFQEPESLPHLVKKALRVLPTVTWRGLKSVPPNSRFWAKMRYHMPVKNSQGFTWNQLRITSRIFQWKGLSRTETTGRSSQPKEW

T3: human IL-18 binding protein (human, UniProt O95998 31-194)
T3 sequence (looked up): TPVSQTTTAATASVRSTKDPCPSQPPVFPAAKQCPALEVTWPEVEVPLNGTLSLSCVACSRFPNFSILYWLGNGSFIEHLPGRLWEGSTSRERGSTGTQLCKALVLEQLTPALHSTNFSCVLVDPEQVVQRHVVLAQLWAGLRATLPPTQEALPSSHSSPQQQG


Tests used:
Assay in all cases: cell-based or functional assay
[1] = biological target: T1, IL-18 receptor (IL-18Rα and IL-18Rβ)
[2] = biological target: T2, IL-18 receptors on HEK-Blue IL-18 …
[3] = biological target: T3, human IL-18 binding protein

| Binder | EC50 (pM), PBMC IFN gamma assay, average [1] | EC50 (pM), PBMC IFN gamma assay, run 1 [1] | EC50 (pM), PBMC IFN gamma assay, run 2 [1] | EC50 (pM), PBMC IFN gamma assay, run 3 [1] | PBMC IFN gamma EC50 relative to WT-IL18, average [1] | PBMC IFN gamma EC50 relative to WT-IL18, run 1 [1] | PBMC IFN gamma EC50 relative to WT-IL18, run 2 [1] | PBMC IFN gamma EC50 relative to WT-IL18, run 3 [1] | HEK-Blue activity, No BP, DF-10000 [2] | HEK-Blue activity, No BP, DF-100,000 [2] | HEK-Blue activity, No BP, DF-1,000,000 [2] | HEK-Blue activity, +100 nM BP, DF-10000 [3] | HEK-Blue activity, +100 nM BP, DF-100,000 [3] | HEK-Blue activity, +100 nM BP, DF-1,000,000 [3] | Ratio (-BP/+BP), DF-10000 [3] | Ratio (-BP/+BP), DF-100,000 [3] | Ratio (-BP/+BP), DF-1,000,000 [3] |
| --- | --- | --- | --- | --- | --- | --- | --- | --- | --- | --- | --- | --- | --- | --- | --- | --- | --- |
| hIL18 (G3V, E6K, K53S, M60K) - KiH (Fc fusion) YFVKLKSKLSVIRNLNDQVLFIDQGNRPLFEDMTDSDMRDNAPRTIFIISMYSDSQPRGKAVTISVKSEKISTLSSENKIISFKEMNPPDNIKDTKSDIIFFQRSVPGHDNKMQFESSSYEGYFLASEKERDLFKLILKKEDELGDRSIMFTVQNED | 16.8 pM | 17.8 pM | 21.6 pM | 10.9 pM | 0.12 | 0.07 | 0.21 | 0.07 | – | – | – | – | – | – | – | – | – |
| yeast display IL-18 variant T34I, S36V, D40I, N41M, K53G, S55Y (ligand) YFGKLESKLSVIRNLNDQVLFIDQGNRPLFEDMIDVDMRIMAPRTIFIISMYGDYQPRGMAVTISVKSEKISTLSSENKIISFKEMNPPDNIKDTKSDIIFFQRSVPGHDNKMQFESSSYEGYFLASEKERDLFKLILKKEDELGDRSIMFTVQNED | – | – | – | – | – | – | – | – | 0.3 | 0.11 | 0.14 | 0.21 | 0.1 | 0.09 | 1.46 | 1.11 | 1.52 |
| hIL18 (G3T, E6K, K53S, M60K) - KiH (Fc fusion) YFTKLKSKLSVIRNLNDQVLFIDQGNRPLFEDMTDSDMRDNAPRTIFIISMYSDSQPRGKAVTISVKSEKISTLSSENKIISFKEMNPPDNIKDTKSDIIFFQRSVPGHDNKMQFESSSYEGYFLASEKERDLFKLILKKEDELGDRSIMFTVQNED | 84.4 pM | 90.3 pM | 121 pM | 41.6 pM | 0.6 | 0.37 | 1.15 | 0.26 | – | – | – | – | – | – | – | – | – |
| hIL18 (G3T, K53A, M60K) - KiH (Fc fusion) YFTKLESKLSVIRNLNDQVLFIDQGNRPLFEDMTDSDMRDNAPRTIFIISMYADSQPRGKAVTISVKSEKISTLSSENKIISFKEMNPPDNIKDTKSDIIFFQRSVPGHDNKMQFESSSYEGYFLASEKERDLFKLILKKEDELGDRSIMFTVQNED | 195 pM | 209 pM | 214 pM | 162 pM | 1.3 | 0.87 | 2.04 | 1 | – | – | – | – | – | – | – | – | – |
| hIL18 (G3T, K53S, M60K) - KiH (Fc fusion) YFTKLESKLSVIRNLNDQVLFIDQGNRPLFEDMTDSDMRDNAPRTIFIISMYSDSQPRGKAVTISVKSEKISTLSSENKIISFKEMNPPDNIKDTKSDIIFFQRSVPGHDNKMQFESSSYEGYFLASEKERDLFKLILKKEDELGDRSIMFTVQNED | 906 pM | 810 pM | 1120 pM | 784 pM | 6.3 | 3.36 | 10.7 | 4.85 | – | – | – | – | – | – | – | – | – |
| hIL18 (G3V, K53A, M60K) - KiH (Fc fusion) YFVKLESKLSVIRNLNDQVLFIDQGNRPLFEDMTDSDMRDNAPRTIFIISMYADSQPRGKAVTISVKSEKISTLSSENKIISFKEMNPPDNIKDTKSDIIFFQRSVPGHDNKMQFESSSYEGYFLASEKERDLFKLILKKEDELGDRSIMFTVQNED | 60.6 pM | 47.3 pM | 75 pM | 59.4 pM | 0.43 | 0.2 | 0.71 | 0.37 | – | – | – | – | – | – | – | – | – |
